Laboratory results published in patent publication US7371553.
Like-named read-outs stand apart in the source and are kept apart here.

T1: succinyl-AAPF-p-nitroanilide
T1 sequence: AAPF

T2: suc-AAPR-pNA
T2 sequence: AAPR

T3: suc-AAPA-pNA
T3 sequence: AAPA

T4: suc-AAPE-pNA
T4 sequence: AAPE

T5: suc-AAPE-pNA
T5 chain: AAPE

T6: succinyl-AAPF-p-nitroanilide
T6 chain: AAPF

T7: suc-AAPR-pNA
T7 chain: AAPR

T8: suc-AAPA-pNA
T8 chain: AAPA

B1: subtilisin Bacillus lentus, wild type (protein)
chain: AQSVPWGISRVQAPAAHNRGLTGSGVKVAVLDTGISTHPDLNIRGGASFVPGEPSTQDGNGHGTHVAGTIAALNNSIGVLGVAPSAELYAVKVLGASGSGSVSSIAQGLEWAGNNGMHVANLSLGSPSPSATLEQAVNSATSRGVLVVAASGNSGAGSISYPARYANAMAVGATDQNNNRASFSQYGAGLDIVAPGVNVQSTYPGSTYASLNGTSMATPHVAGAAALVKQKNPSWSNVQIRNHLKNTATSLGSTNLYGSGLVNAEAATR

Assays:
[1] = system: T1, succinyl-AAPF-p-nitroanilide
suc-AAPR-pNA [2] = system: T2, suc-AAPR-pNA
suc-AAPA-pNA [3] = system: T3, suc-AAPA-pNA
suc-AAPE-pNA [4] = system: T4, suc-AAPE-pNA
suc-AAPE-pNA [5] = molecular target: T5, suc-AAPE-pNA
[6] = molecular target: T6, succinyl-AAPF-p-nitroanilide
suc-AAPR-pNA [7] = molecular target: T7, suc-AAPR-pNA
suc-AAPA-pNA [8] = molecular target: T8, suc-AAPA-pNA

Molecule	KM [1]	other results
SBL L217C-a of Example 2 (aminoethyl side chain)	640 µM	–
SBL N62C-b of Example 1 (4-carboxybutyl side chain)	1010 µM	–
SBL S156C-a of Example 1 (sulfonatoethyl side chain)	1200 µM	–
SBL S166C-d of Example 2 (2,2-bis(aminomethyl)-3-aminopropyl side chain)	1160 µM	–
SBL S166C-S-ethyl	KM0.76±0.08 mM	–
SBL L217C-e of Example 1 (3,3,4-tricarboxybutyl side chain)	1480 µM	–
SBL S166C-c of Example 2 (5,5-bis(aminomethyl)-3-oxo-hexyl side chain)	1270 µM	–
SBL S166C (unmodified cysteine mutant, R = H)	500 µM	–
SBL N62C-a of Example 1 (sulfonatoethyl side chain)	930 µM	–
SBL S156C-S-benzyl	KM 0.59±0.05 mM	–
SBL N62C-b of Example 2 (2-(trimethylammonium)ethyl side chain)	860 µM	–
SBL N62C-a of Example 2 (aminoethyl side chain)	1000 µM	–
SBL S166C-S-CH2C6H4-3,5-(COO-)2	1600 µM	KM (suc-AAPR-pNA [2]): 5500 µM; kcat/KM (suc-AAPR-pNA [2]): 120 M⁻¹ s⁻¹; ΔΔG‡T = RT ln[(kcat/KM)WT/(kcat/KM)CMM] (suc-AAPR-pNA [2]): S166C-S-d -1.00; kcat/KM [1]: 29000 M⁻¹ s⁻¹
SBL L217C-c of Example 1 (3,5-dicarboxybenzyl side chain)	810 µM	–
SBL S156C-b of Example 1 (4-carboxybutyl side chain)	1080 µM	–
SBL L217C-a of Example 1 (sulfonatoethyl side chain)	1800 µM	–
SBL S166C-S-CH2-c-C6H11	700 µM	KM (suc-AAPA-pNA [3]): 1900 µM; kcat/KM (suc-AAPA-pNA [3]): 14800 M⁻¹ s⁻¹; kcat/KM [1]: 6900 M⁻¹ s⁻¹
SBL L217C-b of Example 2 (2-(trimethylammonium)ethyl side chain)	690 µM	–
SBL N62C-d of Example 2 (2,2-bis(aminomethyl)-3-aminopropyl side chain)	1170 µM	–
SBL S156C (unmodified cysteine mutant, R = H)	850 µM	–
SBL S166C-S-CH2CH2C(COO-)3	2460 µM	KM (suc-AAPR-pNA [2]): 5200 µM; kcat/KM (suc-AAPR-pNA [2]): 200 M⁻¹ s⁻¹; ΔΔG‡T = RT ln[(kcat/KM)WT/(kcat/KM)CMM] (suc-AAPR-pNA [2]): S166C-S-j -1.31; kcat/KM [1]: 31000 M⁻¹ s⁻¹
SBL N62C-S-benzyl	KM 0.34±0.03 mM	–
SBL S166C-S-CH2C6H5	1170 µM	KM (suc-AAPA-pNA [3]): 800 µM; kcat/KM (suc-AAPA-pNA [3]): 9000 M⁻¹ s⁻¹; kcat/KM [1]: 20000 M⁻¹ s⁻¹
SBL S166C-S-CH2(CH2)8CH3	1090 µM	KM (suc-AAPA-pNA [3]): 1900 µM; kcat/KM (suc-AAPA-pNA [3]): 3600 M⁻¹ s⁻¹; kcat/KM [1]: 75000 M⁻¹ s⁻¹
SBL L217C-S-n-pentyl	KM 0.52±0.05 mM	–

Molecule	KM [1]	other results
SBL L217C-d of Example 1 (3,3-dicarboxybutyl side chain)	1650 µM	–
SBL L217C-d of Example 2 (2,2-bis(aminomethyl)-3-aminopropyl side chain)	2900 µM	–
SBL S156C-e of Example 1 (3,3,4-tricarboxybutyl side chain)	1870 µM	–
SBL L217C-b of Example 1 (4-carboxybutyl side chain)	1030 µM	–
SBL S156C-c of Example 1 (3,5-dicarboxybenzyl side chain)	1390 µM	–
SBL N62C-e of Example 1 (3,3,4-tricarboxybutyl side chain)	1460 µM	–
SBL N62C-S-ethyl	KM 0.55±0.04 mM	–
SBL S156C-d of Example 1 (3,3-dicarboxybutyl side chain)	1670 µM	–
SBL N62C-c of Example 1 (3,5-dicarboxybenzyl side chain)	1000 µM	–
SBL S156C-b of Example 2 (2-(trimethylammonium)ethyl side chain)	740 µM	–
SBL S166C-S-CH2(CH2)2CH2COO-	1520 µM	KM (suc-AAPR-pNA [2]): 8200 µM; kcat/KM (suc-AAPR-pNA [2]): 41 M⁻¹ s⁻¹; ΔΔG‡T = RT ln[(kcat/KM)WT/(kcat/KM)CMM] (suc-AAPR-pNA [2]): S166C-S-h -0.37; kcat/KM [1]: 31000 M⁻¹ s⁻¹
SBL N62C-c of Example 2 (5,5-bis(aminomethyl)-3-oxo-hexyl side chain)	1060 µM	–
SBL S166C-S-CH2CH2SO3-	1340 µM	KM (suc-AAPR-pNA [2]): 3400 µM; kcat/KM (suc-AAPR-pNA [2]): 50 M⁻¹ s⁻¹; ΔΔG‡T = RT ln[(kcat/KM)WT/(kcat/KM)CMM] (suc-AAPR-pNA [2]): S166C-S-b -0.49; kcat/KM [1]: 19000 M⁻¹ s⁻¹
SBL S166C-S-CH2CH2C(CH3)(COO-)2	2260 µM	KM (suc-AAPR-pNA [2]): 5300 µM; kcat/KM (suc-AAPR-pNA [2]): 80 M⁻¹ s⁻¹; ΔΔG‡T = RT ln[(kcat/KM)WT/(kcat/KM)CMM] (suc-AAPR-pNA [2]): S166C-S-1-0.76; kcat/KM [1]: 30000 M⁻¹ s⁻¹
SBL S156C-a of Example 2 (aminoethyl side chain)	730 µM	–
SBL N62C-d of Example 1 (3,3-dicarboxybutyl side chain)	1470 µM	–
SBL L217C-c of Example 2 (5,5-bis(aminomethyl)-3-oxo-hexyl side chain)	2940 µM	–
SBL S156C-d of Example 2 (2,2-bis(aminomethyl)-3-aminopropyl side chain)	810 µM	–
SBL L217C (unmodified cysteine mutant, R = H)	800 µM	–
SBL S156C-c of Example 2 (5,5-bis(aminomethyl)-3-oxo-hexyl side chain)	760 µM	–
SBL S166C-S-CH2CH2NH3+	680 µM	kcat/KM substrate screen (FIG. 10) (suc-AAPR-pNA [2]): the substrate screen (FIG. 10) shows that suc-AAPA-pNA and suc-AAPR-pNA are poorer substrates; KM (suc-AAPE-pNA [4]): 1900 µM; kcat/KM (suc-AAPE-pNA [4]): 7600 M⁻¹ s⁻¹; kcat/KM substrate screen (FIG. 10) (suc-AAPA-pNA [3]): the substrate screen (FIG. 10) shows that suc-AAPA-pNA and suc-AAPR-pNA are poorer substrates; kcat/KM [1]: 74000 M⁻¹ s⁻¹
SBL S166C-(CH2)2NMe3+	1420 µM	–
SBL N62C-S-n-pentyl	KM 0.75±0.05 mM	–
SBL N62C (unmodified cysteine mutant, R = H)	1900 µM	–
B1	–	KM (suc-AAPE-pNA [5]): 4400 µM; kcat/KM (suc-AAPE-pNA [5]): 400 M⁻¹ s⁻¹; KM [6]: 730 µM; kcat/KM [6]: 209000 M⁻¹ s⁻¹; KM (suc-AAPR-pNA [7]): 7200 µM; kcat/KM (suc-AAPR-pNA [7]): 22 M⁻¹ s⁻¹; KM (suc-AAPA-pNA [8]): 2000 µM; kcat/KM (suc-AAPA-pNA [8]): 8800 M⁻¹ s⁻¹
